Measurements from paper PMC5734868 (ACS infectious diseases, 2017).

Biological target: the molecule itself
Assay: SDS-PAGE of semi-denatured protein

B1: M. tuberculosis aspartate decarboxylase PanD, wild type (enzyme)
chain: MLRTMLKSKIHRATVTCADLHYVGSVTIDADLMDAADLLEGEQVTIVDIDNGARLVTYAITGERGSGVIGINGAAAHLVHPGDLVILIAYATMDDARARTYQPRIVFVDAYNKPIDMGHDPAFVPENAGELLDPRLGVG
Does B1 bind?
Result: binds
